What was measured:
[1] = test system: O=C(O)CNCP(=O)(O)O; assay: cells, lysate or membranes named; conditions: 37.0 °C
[2] = test system: N[C@@H](CC(=O)O)C(=O)O; assay: cells, lysate or membranes named; conditions: 37.0 °C
[3] = test system: O=C(O)CNCP(=O)(O)O; assay: Substrate saturation kinetic analysis of purified GLYAT; type: biochemical; conditions: other: SEQ ID NO:26, pH 7.0, non-varied substrate saturating, 37.0 °C
Procedure: (§1) E. coli cultures in LB or 2×YT were grown overnight at 37° C. to saturation. The cells were used as a 2% inoculum into fresh media. When OD reached 0.6, IPTG was added to 0.2 mM and growth was continued for at least 6 hours. Cells were harvested by centrifugation and stored at −80° C. Cells were lysed with BPER (Pierce) containing 1 mM dithiothreitol, 0.2 mg/ml lysozyme, 2 mg/ml protease inhibitor cocktail (Sigma bacterial cell cocktail, P8465) and endonuclease. Lysate supernatants were passed through a column of NHS-activated Agarose (Thermo, #26197) derivatized with coenzyme A. Columns were washed with 25 mM Hepes, pH 7, containing progressively higher concentrations of KCl, then eluted with 25 mM Hepes, 100 mM KCl, 10% ethylene glycol and 1 mM acetyl CoA. Purity as evaluated by polyacrylamide gel electrophoresis was deemed consistently high enough to be assumed to be 100%. Protein concentration was determined with the Bradford assay using a large-scale lot of produced GLYAT protein as standard.
(§2) Kinetic parameters for various substrates were obtained using a range of seven substrate concentrations plus a blank containing none of the varied substrate. The non-varied substrate was present at a saturating concentration. Six-microliter aliquots of 50-fold concentrated stock solutions of the varied substrate were placed in a 96-well assay plate (Greiner BioOne UV-Star). Reactions were started with the addition of 294 ul of 25 mM Hepes, pH 7.0, 100 mM KCL, 10% ethylene glycol, the non-varied substrate and 10 to 200 nM enzyme. Absorbance was monitored for one minute with a Spectramax 384 Plus plate reader (Molecular Devices). If the amino acid present at position 30 (29 if alanine is absent at position 2) was cysteine, absorbance was monitored at 235 nm, which directly detects cleavage of the sulfoester bond of acetyl CoA. If the amino acid present at position 30 (29 if alanine is absent at position 2) was isoleucine, 0.5 mM 5,5′-dithiobis-(2-nitrobenzoic acid), which reacts with the coenzyme A thiol generated in the enzyme catalyzed reaction, was included in the reaction mix and absorbance was monitored at 412 nm. Initial rates were processed by the Softmax software to obtain kinetic parameters, using the double-reciprocal transformation.
The sequences with the new substitutions were derived through a combination of saturation mutagenesis of an already fit protein (SEQ ID NO:26) and an effective screening cascade as a means of identifying the improved genes (Examples 1-2). Regions in which novel changes are concentrated include helix H2a (positions 23 and 25-29) and the hairpin formed by strands B6 and B7 (positions 124-144). These two structures are components of the amino substrate binding site. Helix H3, the backbone to which the central beta sheet is anchored, is a region where 24% of the novel substitutions (17 out of 71) disclosed in Table 4 are concentrated into 11% of the positions (16 out of 146). None of those are near enough to the active site to influence substrate specificity directly. In three cases, multiple novel substitutions were discovered immediately or nearly adjacent to conserved amino acids shown previously to contribute to the catalytic mechanism (Siehl D L et. al., J Biol Chem, 282:11446, 2007). The catalytic amino acids for which this is the case are R21, R111, H138 and the nearby positions with multiple substitutions are 23, 112 and 137. The diverse amino acids at these positions may influence the orientation of the neighboring catalytic amino acids so as to selectively optimize catalysis with the preferred substrate, glyphosate.

[4] = test system: O=C(O)CNCP(=O)(O)O; assay: as above; type: biochemical; conditions: other: SEQ ID NO:7, pH 7.0, non-varied substrate saturating, 37.0 °C
Procedure: as §1
as §2, with “Reactions were started with the addition of 294 ul of 25 mM Hepes, pH 7.0, 100 mM KCL, 10% ethylene glycol, the non-varied substrate and 10 to 200 nM enzyme.” left out, “Initial rates were processed by the Softmax software to obtain kinetic parameters, using the double-reciprocal transformation.” left out

[5] = other: SEQ ID NO:9, pH 7.0, non-varied substrate saturating
[6] = other: SEQ ID NO:3, pH 7.0, non-varied substrate saturating
[7] = other: SEQ ID NO:10, pH 7.0, non-varied substrate saturating
[8] = other: SEQ ID NO:5, pH 7.0, non-varied substrate saturating

With “GLYAT variant SEQ ID NO:9 (derived from SEQ ID NO:1 and 2) (Bacillus licheniformis DSM 13 = ATCC 14580; A28V/D131E/E119K/E14D/E65Q/E67K/E68K/G37R/G38S/I132T/I135A/I15L/I19V/I53V/I91V/K101R/K144R/K58Q/L105M/L26I/L97I/M75V/R47G/R92K/T89S/V114A/Y130F/Y45F)” as the substance, how does the Km [1, 5] read?
The Km was 250 µM.

What about the kcat [1, 5] of the same substance?
The kcat was 11.6 s⁻¹.

And the kcat/Km [1, 5]?
The kcat/Km was 45430 M⁻¹ s⁻¹.

And the Km [2, 5]?
Its Km is 78700 µM.

What about the kcat [2, 5] of the same substance?
Its kcat is 2.58 s⁻¹.

And the kcat/Km [2, 5]?
Its kcat/Km is 33.3 M⁻¹ s⁻¹.

For “GLYAT variant SEQ ID NO:3 (derived from SEQ ID NO:1 and 2) (Bacillus licheniformis DSM 13 = ATCC 14580; A28V/D131E/E119K/E14D/E65Q/E67K/E68K/E83D/G37R/I132T/I135V/I15L/I19V/I2L/I53V/I91V/K101R/K144R/K58Q/L105M/L106I/L26I/L97I/M75V/R47G/R92K/T89S/V114A/Y130F/Y45F)”, which Km [1, 6] is on record?
Its Km is 600 µM.

And the kcat [1, 6]?
Its kcat is 11.6 s⁻¹.

What about the kcat/Km [1, 6] of the same substance?
The kcat/Km was 19320 M⁻¹ s⁻¹.

And the Km [2, 6]?
Its Km is 35100 µM.

What about the kcat [2, 6] of the same substance?
Its kcat is 2.72 s⁻¹.

And the kcat/Km [2, 6]?
Its kcat/Km is 77.8 M⁻¹ s⁻¹.

What does the source list for “GLYAT variant SEQ ID NO:10 (derived from SEQ ID NO:1 and 2) (Bacillus licheniformis DSM 13 = ATCC 14580; A28V/D131E/E14D/E65Q/E67K/E68K/G37R/G38S/H61R/I132T/I135A/I15L/I19V/I53V/I91V/K101R/K144R/K58Q/L105M/L106I/L26I/L97I/M75V/R47G/R92K/T89S/V114A/Y130F/Y45F)”?
Km [1, 7]: 370 µM; kcat [1, 7]: 11.6 s⁻¹; kcat/Km [1, 7]: 31680 M⁻¹ s⁻¹; Km [2, 7]: 89300 µM; kcat [2, 7]: 2.48 s⁻¹; kcat/Km [2, 7]: 28.2 M⁻¹ s⁻¹

With “GLYAT variant SEQ ID NO:5 (derived from SEQ ID NO:1 and 2) (Bacillus licheniformis DSM 13 = ATCC 14580; A28V/D131E/E14D/E65Q/E67K/E68K/G37R/I132T/I135A/I15L/I19V/I53V/I91V/K101R/K144R/K58Q/L105M/L106I/L26I/L97I/M75V/R47G/R92K/T89S/V114A/Y130F/Y45F)” as the substance, how does the Km [1, 8] read?
The Km was 230 µM.

And the kcat [1, 8]?
The kcat was 16.98 s⁻¹.

And the kcat/Km [1, 8]?
The kcat/Km was 76470 M⁻¹ s⁻¹.

And the Km [2, 8]?
The Km was 79100 µM.

What about the kcat [2, 8] of the same substance?
Its kcat is 3.58 s⁻¹.

What about the kcat/Km [2, 8] of the same substance?
The kcat/Km was 45.3 M⁻¹ s⁻¹.

For “GLYAT (glyphosate-N-acetyltransferase), parent of saturation mutagenesis (already fit protein), SEQ ID NO:26 (derived from SEQ ID NO:1 and 2) (Bacillus licheniformis DSM 13 = ATCC 14580; A28V/C29I/D131E/E14D/E65Q/E67K/E68K/E83D/G37R/I132T/I135A/I15L/I19V/I53V/I91V/K101R/K144R/K58Q/L105M/L26I/L97I/M75V/R47G/R92K/T89S/V114A/Y130F/Y45F)”, which Km [3] is on record?
The Km was 220 µM.

What about the kcat [3] of the same substance?
Its kcat is 9.33 s⁻¹.

What about the kcat/Km [3] of the same substance?
The kcat/Km was 41750 M⁻¹ s⁻¹.

How did the Km [4] turn out when “GLYAT variant SEQ ID NO:7 (derived from SEQ ID NO:1 and 2) (Bacillus licheniformis DSM 13 = ATCC 14580; A28V/D131E/E119K/E14D/E65Q/E67K/E68K/E79G/E83D/G37R/G38S/G48A/I132L/I135A/I15L/I19V/I2L/I53V/I91V/K101R/K144R/K58Q/L105M/L106I/L26I/L36T/L97I/M75V/N109F/R47G/R92K/T33S/T89S/V114A/Y130F/Y31W/Y45F)” was run?
The Km was 800 µM.

What about the kcat [4] of the same substance?
Its kcat is 7.13 s⁻¹.

What about the kcat/Km [4] of the same substance?
The kcat/Km was 8870 M⁻¹ s⁻¹.

Source: US11236354B2, “Glyphosate-n-acetyltransferase (GLYAT) sequences and methods of use” (PIONEER HI-BRED INTERNATIONAL, INC., priority 2013, dated 2022)
